Columns and labels:
Test in all cases: SPR
[1] = target: NL3A1 (rat neuroligin 3 cholinesterase-like region, with insert A1, without insert A2) (rat)
[2] = target: NL3A2 (rat neuroligin 3 cholinesterase-like region, with insert A2, without insert A1) (rat)
[3] = target: NL3Δ (rat neuroligin 3 cholinesterase-like region, without inserts A1 and A2) (rat)
[4] = target: NL2Δ (rat neuroligin 2 cholinesterase-like region, without insert A) (rat)
[5] = target: NL3A1A2 (rat neuroligin 3 cholinesterase-like region, with inserts A1 and A2) (rat) (UniProt Q62889)
[6] = target: NL2A (rat neuroligin 2 cholinesterase-like region, with insert A) (rat) (UniProt Q62888)
[7] = target: NL1Δ (rat neuroligin 1 cholinesterase-like region, without inserts A and B) (rat)
[8] = target: NL1A (rat neuroligin 1 cholinesterase-like region, with insert A, without insert B) (rat)
[9] = target: NL1B (rat neuroligin 1 cholinesterase-like region, with insert B, without insert A) (rat)
[10] = target: NL1AB (rat neuroligin 1 cholinesterase-like region, with inserts A and B) (rat) (UniProt Q62765)

Chain of β-NRX2+4 (rat β-neurexin 2 LNS domain, with splice insert 4) (Q63376 87-290): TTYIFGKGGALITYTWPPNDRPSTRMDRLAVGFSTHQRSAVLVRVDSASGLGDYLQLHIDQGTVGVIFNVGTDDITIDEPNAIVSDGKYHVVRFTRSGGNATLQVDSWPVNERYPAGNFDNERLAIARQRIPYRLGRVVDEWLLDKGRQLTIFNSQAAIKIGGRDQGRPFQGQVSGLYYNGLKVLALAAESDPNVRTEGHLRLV
Chain of β-NRX1+4 (mouse β-neurexin 1 LNS domain, with splice insert 4) (P0DI97 86-288): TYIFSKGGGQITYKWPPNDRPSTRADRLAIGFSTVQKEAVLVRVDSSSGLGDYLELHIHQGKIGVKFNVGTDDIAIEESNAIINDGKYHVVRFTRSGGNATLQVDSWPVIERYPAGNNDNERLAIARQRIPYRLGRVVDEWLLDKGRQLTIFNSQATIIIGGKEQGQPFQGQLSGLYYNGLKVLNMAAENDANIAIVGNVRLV

With “β-NRX3Δ4 (mouse β-neurexin 3 LNS domain, lacking splice insert 4) (domain or fragment)” the Kd [1] was 6.26 µM, the Kd [2] was 11.2 µM and the Kd [3] was 10.1 µM. For the same substance, the Kd [4] was 418 nM, the Kd [5] was 10.9 µM and the Kd [6] was 369 nM. The Kd [7] was 1020 nM and the Kd [8] was 782 nM.

“β-NRX1+4 (mouse β-neurexin 1 LNS domain, with splice insert 4) (from UniProt P0DI97 86-288) (domain or fragment)” showed a Kd [1] of 12 µM, a Kd [9] of 2750 nM and a Kd [2] of 21.9 µM. The Kd [3] was 23.8 µM, the Kd [4] was 3520 nM and the Kd [7] was 1540 nM. For the same substance, the Kd [8] was 2100 nM.

Substance “β-NRX1Δ4 (mouse β-neurexin 1 LNS domain, lacking splice insert 4) (domain or fragment)” has a Kd [1] of 7.45 µM, a Kd [9] of 1160 nM and a Kd [10] of 1210 nM. It also gave a Kd [2] of 7.15 µM, a Kd [3] of 8.17 µM and a Kd [4] of 964 nM. The Kd [5] was 6.57 µM, the Kd [7] was 828 nM and the Kd [8] was 845 nM.

“β-NRX3+4 (mouse β-neurexin 3 LNS domain, with splice insert 4) (domain or fragment)” gave a Kd [1] of 4.32 µM, a Kd [9] of 365 nM and a Kd [10] of 393 nM. For the same substance, the Kd [3] was 9.73 µM, the Kd [4] was 262 nM and the Kd [5] was 9.39 µM. For the same substance, the Kd [6] was 239 nM, the Kd [7] was 332 nM and the Kd [8] was 246 nM.

“β-NRX2Δ4 (rat β-neurexin 2 LNS domain, lacking splice insert 4) (domain or fragment)” showed a Kd [1] of 9.05 µM, a Kd [9] of 2210 nM and a Kd [10] of 2290 nM. For the same substance, the Kd [3] was 16.5 µM, the Kd [4] was 706 nM and the Kd [5] was 15.3 µM. The Kd [7] was 917 nM and the Kd [8] was 1470 nM.

With “β-NRX2+4 (rat β-neurexin 2 LNS domain, with splice insert 4) (from UniProt Q63376 87-290) (domain or fragment)” the Kd [1] was 20.5 µM, the Kd [9] was 5480 nM and the Kd [2] was 42.2 µM. The Kd [3] was 56.8 µM, the Kd [4] was 3390 nM and the Kd [7] was 3770 nM. The Kd [8] was 3320 nM.

Reference: PMC2910870
